The text below walks through data of publication PMC6309224.

Test [1] has as its target DIP-α ectodomain (isoform A Phe40-Pro341) (Drosophila melanogaster). Nature of the test: SPR. (Surface plasmon resonance follows binding to a sensor surface in real time, without labels.)
Test [2] has the same target. Nature of the test: AUC.
The target in test [3] is Dpr21 ectodomain (Asp48-Asp253) (Drosophila melanogaster). Nature of the test: AUC.
The target in test [4] is DIP-ι ectodomain (Phe23-Ala325) (Drosophila melanogaster). Nature of the test: SPR.
For test [5], the target named is DIP-η ectodomain (isoform B Gln31-Pro338) (Drosophila melanogaster). Nature of the test: SPR.
For test [6], the target named is DIP-θ ectodomain (Asp128-Pro423) (Drosophila melanogaster). Nature of the test: SPR.
Test [7] addresses DIP-ε ectodomain (Glu50-Ser351) (Drosophila melanogaster). Nature of the test: SPR.
The target in test [8] is DIP-ζ ectodomain (isoform A Glu111-Tyr412) (Drosophila melanogaster). Nature of the test: SPR.
The target of test [9] is DIP-β ectodomain (isoform C Ile82-Glu408) (Drosophila melanogaster). Nature of the test: SPR.
Test [10] concerns the target DIP-ζ ectodomain (isoform A Glu111-Tyr412) (Drosophila melanogaster). Nature of the test: AUC.
Test [11] deals with DIP-η ectodomain (isoform B Gln31-Pro338) (Drosophila melanogaster). Nature of the test: AUC.
The target of test [12] is Dpr12 ectodomain (Dpr12C Ser72-Asp285) (Drosophila melanogaster). Nature of the test: AUC.

For the substance “Dpr6 H110K ectodomain (domain or fragment)”, in test [1], the fold decrease in binding against wild-type Dpr6 amounted to 25 fold.

One may read the Kd as the free concentration of one partner at which half of the binding sites on the other are occupied at equilibrium, for simple one-to-one binding. “DIP-α ectodomain (isoform A Phe40-Pro341) (domain or fragment)” showed a Kd in [2] of 23.9 µM.

As for “Dpr21 ectodomain (Asp48-Asp253) (domain or fragment)”, the equilibrium dissociation constant (Kd) in test [3] was determined as 49.1 µM.

“Dpr2 ectodomain (Dpr2F Tyr103-Glu323) (domain or fragment)”: the results for the Kd in test [4] and in test [5] were 22.4 µM and 41 µM, respectively.

On to “Dpr6 N102D H110K V164K ectodomain (domain or fragment)”, for which the Kd turned out to be 119 µM in test [5] and 72 µM in test [6].

The substance “Dpr7 ectodomain (Dpr7F Thr37-Glu269) (domain or fragment)” registered a Kd in test [4] of 136 µM.

“Dpr14 ectodomain (Dpr14A Thr26-Glu283) (domain or fragment)”: the Kd in test [7] is 69.2 µM; in test [8] it was 106 µM.

In test [1], “Dpr4 D74N A76T K82H K136V ectodomain (domain or fragment)” returned an equilibrium dissociation constant (Kd) of 16 µM. This lies in the double-digit micromolar range.

The substance “Dpr6 ectodomain (Dpr6C Trp70-Glu275) (domain or fragment)” displayed a dissociation constant Kd in test [9] of 19.4 µM.

As for “Dpr18 ectodomain (His214-Glu478) (domain or fragment)”, the Kd in [7] worked out at 21.2 µM; in test [8], 24.7 µM.

“Dpr10 ectodomain (Dpr10D Trp50-Glu255) (domain or fragment)” registered a dissociation constant (Kd) in test [9] of 54.9 µM.

The substance “DIP-ζ ectodomain (isoform A Glu111-Tyr412) (domain or fragment)” returned a Kd in test [10] of 22.2 µM.

Turning to “Dpr4 K82H ectodomain (domain or fragment)”, the Kd in test [1] is more than 400 µM.

As to “DIP-η ectodomain (isoform B Gln31-Pro338) (domain or fragment)”, the Kd in [11] was found to be 35.4 µM.

As to “Dpr12 ectodomain (Dpr12C Ser72-Asp285) (domain or fragment)”, in test [12], the Kd came to 71.3 µM. In other words, the double-digit micromolar range.

In [9], “Dpr11 ectodomain (Dpr11B Leu114-Glu324) (domain or fragment)” had a Kd of 94 µM.

Take “Dpr4 K82H K136V ectodomain (domain or fragment)”: the fold weaker binding than wild-type Dpr4 in [5] and in test [6] was more than 4 fold each time. In test [1], the Kd turned out to be 44.9 µM.
